# Laboratory results published in article PMC3256231.
# Tests used:
# [1] = biological target: M protein stG120.1 (Streptococcus dysgalactiae subsp. equisimilis); experiment: radioligand binding; 250 µl of streptococci (10^8 bacteria per ml in PBS with 0.05% Tween 20), before and after hyaluronidase treatment, incubated 45 min with 30 ng (100,000 cpm) of 125I-labelled collagen IV; washed, radioactivity of the pellet counted; cut-off 20% bound ligand
# [2] = biological target: M protein M3.22 (Streptococcus pyogenes); experiment: as above
# [3] = biological target: human collagen IV (immobilized, SPR) (human) (UniProt P02462); experiment: SPR; human collagen IV immobilised (400 RU); recombinant M proteins injected for 2 min at 60 µl/min; apparent constants, Langmuir model for 1:1 interactions (BiaEvaluation 3.0)
substance,measurement,setting,value
"125I-labelled collagen IV (from human placenta, Sigma-Aldrich) (from UniProt P02462 173-1669; P08572 184-1712) (complex)",percent bound ligand (% bound ligand),[1],56
same,percent of the added collagen IV bound (% of the added collagen IV),[2],> 20
recombinant M protein M31.5 (natural protein),Kd,[3],0.6 nM
recombinant M protein M55 (from UniProt Q54840 1-550) (natural protein),Kd,[3],5 nM
recombinant M protein stG2078 (natural protein),SPR response,[3],< 4 RU
